Changes are numbered by the printed parent chain.
T1: FLAG-Npas4 (Mus musculus (mouse), UniProt Q8BGD7 1-802)
T1 sequence: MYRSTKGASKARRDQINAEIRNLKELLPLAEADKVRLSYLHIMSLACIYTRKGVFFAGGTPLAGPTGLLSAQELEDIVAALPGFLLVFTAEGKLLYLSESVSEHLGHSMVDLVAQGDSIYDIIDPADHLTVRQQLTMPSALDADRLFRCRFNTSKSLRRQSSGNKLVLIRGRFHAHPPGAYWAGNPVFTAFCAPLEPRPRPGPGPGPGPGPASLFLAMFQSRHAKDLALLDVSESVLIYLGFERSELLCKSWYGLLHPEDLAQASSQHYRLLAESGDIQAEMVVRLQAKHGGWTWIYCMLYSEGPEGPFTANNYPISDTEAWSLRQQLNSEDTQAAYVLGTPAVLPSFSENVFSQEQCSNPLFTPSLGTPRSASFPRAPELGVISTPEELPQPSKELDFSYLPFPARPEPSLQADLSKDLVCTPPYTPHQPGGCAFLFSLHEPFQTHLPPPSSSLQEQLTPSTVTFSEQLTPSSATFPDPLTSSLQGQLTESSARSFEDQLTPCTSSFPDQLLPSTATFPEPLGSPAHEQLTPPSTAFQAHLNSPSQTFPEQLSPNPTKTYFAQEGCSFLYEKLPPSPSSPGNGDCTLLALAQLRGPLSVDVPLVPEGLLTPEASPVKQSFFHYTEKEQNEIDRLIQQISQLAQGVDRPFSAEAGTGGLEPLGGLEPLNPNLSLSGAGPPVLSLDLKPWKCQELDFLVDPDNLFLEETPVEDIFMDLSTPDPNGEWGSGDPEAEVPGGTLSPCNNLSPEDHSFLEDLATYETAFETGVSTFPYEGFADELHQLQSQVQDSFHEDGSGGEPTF

B1: Iqsec3 promoter WT probe (dsDNA)
DNA 1: CGGGAAGCAGGGTTCCTCACGAAGCCCAGAGGTGGGAGGTGG
DNA 2: CCACCTCCCACCTCTGGGCTTCGTGAGGAACCCTGCTTCCCG
B2: Iqsec3 promoter MT probe (dsDNA)
DNA 1: B1 DNA 1 with C18A, C20A, G21A
DNA 2: B1 DNA 2 with C22T, G23T, G25T

Target: T1, FLAG-Npas4
Assay: EMSA

Binder | binding result
B1 | binds
B2 | no binding

From publication doi:10.1101/659805
